Source: patent publication US20050143472A1, “Novel treatment for pathologies associated with oxidative damage” (priority 2002, published 2005)

Substrate: NCCCNCCCCNCCCN
Experiment: purified protein, by the assay type
Settings: other: apparent value, air-saturated 50 mM KH2PO4/KOH buffer pH 7.6, [O2] 237 μM

B1: mPAO (Mus musculus) (protein)
chain: MAFPGPRVLVVGSGIAGLGAAQKLCSHRAAPHLRVLEATASAGGRIRSERCFGGVVELGAHWIHGPSQDNPVFQLAAEFGLLGEKELSEENQLVDTGGHVALPSMIWSSSGTSVSLELMTEMARLFYGLIERTREFLNESETPMASVGEFLKKEISQQVASWTEDDEDTRKRKLAILNTFFNIKCCVSGTHSMDLVALAPFGEYTVLPGLDCILAGGYQGLTDRILASLPKDTVAFDKPVKTIHWNGSFQEAAFPGETFPVLVECEDGARLPAHHVIVTVPLGFSKEHQDTFFEPPLPAKKAEAIKKLGFGTNNKIFLEFEEPFWEPDCQFIQVVWEDTSPLQDTALSLQDTWFKKLIGFLVQPSFESSHVLCGFIAGLESEFMETLSDEEVLLSLTQVLRRVTGNPQLPAAKSVLSSRWHSAPYTRGSYSYVAVGSTGDDLDLMAQPLPADGTGTQLQVLFAGEATHRTFYSTTHGALLSGWREADRLIGLWDSQAEQSRPRL
B1 was tested, and the kcat was 0.175 s⁻¹ and the kcat/Km was 247 M⁻¹ s⁻¹.
